Molecular target: vitamin K-dependent gamma-glutamyl carboxylase
Assay: inhibition constant of the propeptide toward the carboxylase; assay not described in the example

Ki: 430 pM
Substance: consensus propeptide sequence
